{"source": "IntAct's records for PubMed 12912994", "parents": {"B1": {"name": "Mitogen-activated protein kinase kinase kinase 2 (Mus musculus), Q61083 (parent)", "chain": "MDDQQALNSIMQDLAVLHKASRPALSLQETRKAKPSSPKKQNDVRVKFEHRGEKRILQVTRPVKLEDLRSKSKIAFGQSMDLHYTNNELVIPLTTQDDLDKAVELLDRSIHMKSLKILLVVNGSTQATNLEPSPSPEDLNNTPLGAERKKRLSVVGPPNRDRSSPPPGYIPDILHQIARNGSFTSINSEGEFIPESMDQMLDPLSLSSPENSGSGSCPSLDSPLDGESYPKSRMPRAQSYPDNHQEFTDYDNPIFEKFGKGGTYPRRYHVSYHHQEYNDGRKTFPRARRTQGTSFRSPVSFSPTDHSLSTSSGSSVFTPEYDDSRIRRRGSDIDNPTLTVTDISPPSRSPRAPTNWRLGKLLGQGAFGRVYLCYDVDTGRELAVKQVQFNPESPETSKEVNALECEIQLLKNLLHERIVQYYGCLRDPQEKTLSIFMELSPGGSIKDQLKAYGALTENVTRKYTRQILEGVHYLHSNMIVHRDIKGANILRDSTGNIKLGDFGASKRLQTICLSGTGMKSVTGTPYWMSPEVISGEGYGRKADIWSVACTVVEMLTEKPPWAEFEAMAAIFKIATQPTNPKLPPHVSDYTRDFLKRIFVEAKLRPSAEELLRHMFVHYH", "partner": "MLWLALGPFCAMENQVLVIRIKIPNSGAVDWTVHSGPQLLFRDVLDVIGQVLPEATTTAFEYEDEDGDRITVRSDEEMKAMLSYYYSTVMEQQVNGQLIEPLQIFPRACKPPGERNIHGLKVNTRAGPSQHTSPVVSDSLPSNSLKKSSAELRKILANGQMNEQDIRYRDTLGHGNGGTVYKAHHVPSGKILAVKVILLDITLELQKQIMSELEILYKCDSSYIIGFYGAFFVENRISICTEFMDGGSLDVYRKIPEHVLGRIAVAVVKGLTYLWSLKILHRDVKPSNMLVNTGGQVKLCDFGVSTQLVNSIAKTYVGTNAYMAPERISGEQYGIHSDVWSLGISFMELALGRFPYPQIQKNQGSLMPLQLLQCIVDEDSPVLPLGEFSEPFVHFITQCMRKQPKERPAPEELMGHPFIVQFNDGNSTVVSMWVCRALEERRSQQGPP"}}}
{"variants_of": "B1", "settings": "with mp2k5_mouse Map2k5, Q9WVS7"}
{"variant": "K47A", "effect of a mutation on the interaction": "decreasing interaction"}
